Paper PMC7066533 (Frontiers in Pharmacology, 2020)
Square brackets hold non-standard residues; d marks the D form. βAla = NCCC(=O)O

Columns and labels:
[1] = biological target: T1, human kappa opioid receptor (human, UniProt P41145 1-380); assay: cell-based or functional assay
[2] = biological target: T1, human kappa opioid receptor; assay: radioligand binding; displacement of 2.5 nM [3H]DAMGO (MOPr), 2 nM [3H]diprenorphine (DOPr) or 1 nM [3H]U69,593 (KOPr) from membranes of receptor-expressing HEK-293 cells; 25°C, 90 min, 100 mM Tris-HCl, 0.3% BSA; competitor 10^-12 to 10^-4 M; Ki from IC50 by Cheng-Prusoff; conditions: one partner purified
human mu opioid receptor = biological target: T2, human mu opioid receptor (human, UniProt P35372 1-400); assay: as above; conditions: one partner purified
T2 construct: human mu opioid receptor, stably expressed in HEK-293 cells; membrane preparations used; also called hMOPr; MOPr; source: HEK-293 cells stably expressing hMOPr, cell membranes

[3] = biological target: T3, human delta opioid receptor (human, UniProt P41143 1-372); assay: as above; conditions: one partner purified
T3 construct: human delta opioid receptor, stably expressed in HEK-293 cells; membrane preparations used; also called hDOPr; DOPr; source: HEK-293 cells stably expressing hDOPr, cell membranes

B1: LOR17 (c[Phe-Gly-(β-Ala)-D-Trp]) (peptide)
chain: cyclo(FG[βAla][dW])
SMILES: O=C1CNC(=O)[C@H](Cc2ccccc2)NC(=O)[C@@H](Cc2c[nH]c3ccccc23)NC(=O)CCN1
B1 was tested, and the “IC50 of inhibition of forskolin-induced cAMP accumulation, HEK-293/KOR cells” value [1] was 2.8 nM, the “IC50 of inhibition of forskolin-induced cAMP accumulation, U87-MG cells (endogenous KOPr)” value [1] was 3.1 nM and the “IC50 of inhibition of forskolin-induced cAMP accumulation, normal human astrocytes (endogenous KOPr)” value [1] was 3 nM. The Ki [2] was 1.19 nM, the Ki (human mu opioid receptor) was greater than 100000 nM and the Ki [3] was greater than 100000 nM.
